Test results taken from publication PMC5240642.

Target: FcγRIIIa F158 extracellular domain (UniProt P08637)
Assay: SPR

Sequence of UniProt P08637 (P08637 17-208): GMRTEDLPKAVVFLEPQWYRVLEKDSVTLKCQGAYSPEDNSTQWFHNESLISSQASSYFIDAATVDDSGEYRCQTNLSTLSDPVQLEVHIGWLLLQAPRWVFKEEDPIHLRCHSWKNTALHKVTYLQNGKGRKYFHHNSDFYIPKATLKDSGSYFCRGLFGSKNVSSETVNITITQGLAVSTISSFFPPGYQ

Row | Kd [nM] | Substance
1 | 6.9 | Humira® complexed with TNF homotrimer (2:1 molar ratio) (from UniProt P01375 77-233)
2 | 8 | MSB11022 complexed with TNF homotrimer (2:1 molar ratio) (from UniProt P01375 77-233)
